In patent publication US20160083711:

Test system: fluorogenic peptide (MCA)Lys-Lys-Pro-Ala-Glu-Phe-Phe-Ala-Leu-Lys(DNP)

native cardosin B, sequence (chain, as listed by the source): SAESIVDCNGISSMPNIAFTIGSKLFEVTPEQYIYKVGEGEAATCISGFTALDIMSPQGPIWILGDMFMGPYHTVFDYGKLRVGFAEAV

native cardosin B
Km: 1.4 µM
VMax: 6.36e-06 µmol/s
kcat: 24 s⁻¹
kcat/Km: 17.1 µM⁻¹ s⁻¹
